Assay results reported in patent US20170121425A1 (ACADEMIA SINICA, published 2017).

Assays:
[1] = target: Fc region of human IgE (ε.Fc 2-4), Ser226 to Gly599, N265Q and N371Q (human) (UniProt P01854); experiment: competition ELISA on coated ε.Fc 2-4; competitor HRP-conjugated c8D6 at fixed dilution, unconjugated antibody titrated
[2] = target: T1, mIgE.FcS (CH2-cytoplasmic tail of the short form of human membrane ε chain) on Ramos cells (human, UniProt P01854-3 104-494, limits assumed); experiment: flow cytometry on mIgE.FcS-expressing Ramos cells, FITC anti-human IgG-Fc detection, geometric mean intensity
T1 construct: domain: CH2-cytoplasmic tail of the short form of membrane ε chain; also called mIgE.FcS Ramos
Experimental: (§1) Ramos cells expressing mIgE.FcL or mIgE.FcS were resuspended in FACS buffer (1% FBS and 0.1% sodium azide in 1×PBS) at a cell density of 2×10⁶ cells/mL. […] Bound antibodies were detected by FITC-labeled goat IgG specific for human IgG-Fc (Caltag Laboratories). The stained cells were analyzed on a FACS Canto II flow cytometer (BD Biosciences). The geometric means of fluorescence intensity for the binding of antibodies to Ramos cell lines were analyzed using the FCSExpress software (DeNono software). The EC₅₀ was calculated using the Prism software.

[3] = target: Fc region of human IgE (ε.Fc 2-4), Ser226 to Gly599, N265Q and N371Q (human) (UniProt P01854); experiment: ELISA, ε.Fc 2-4 coated, antibody titrated
[4] = target: Fc region of human IgE (ε.Fc 2-4), Ser226 to Gly599, N265Q and N371Q (human) (UniProt P01854); experiment: ELISA, ε.Fc 2-4 coated on the plate, antibody titrated, OD450
[5] = target: T1, mIgE.FcS (CH2-cytoplasmic tail of the …); experiment: flow cytometry on mIgE.FcS-expressing Ramos cells; c8D6, not hu8D6
Experimental: as §1

[6] = target: T2, mIgE.FcL (CH2-cytoplasmic tail of the long form of human membrane ε chain) on Ramos cells (human, UniProt P01854 104-546, limits assumed); experiment: flow cytometry on mIgE.FcL-expressing Ramos cells, FITC anti-human IgG-Fc detection, geometric mean intensity
T2 construct: domain: CH2-cytoplasmic tail of the long form of membrane ε chain; also called mIgE.FcL Ramos
Experimental: as §1

[7] = target: Fc region of human IgE (ε.Fc 2-4), Ser226 to Gly599, N265Q and N371Q (human) (UniProt P01854); experiment: competitive ELISA on coated ε.Fc 2-4; competitor HRP-conjugated c8D6

Fc region of human IgE (ε.Fc 2-4), Ser226 to Gly599, N265Q and N371Q (human), sequence (P01854 106-427, stated change not applied): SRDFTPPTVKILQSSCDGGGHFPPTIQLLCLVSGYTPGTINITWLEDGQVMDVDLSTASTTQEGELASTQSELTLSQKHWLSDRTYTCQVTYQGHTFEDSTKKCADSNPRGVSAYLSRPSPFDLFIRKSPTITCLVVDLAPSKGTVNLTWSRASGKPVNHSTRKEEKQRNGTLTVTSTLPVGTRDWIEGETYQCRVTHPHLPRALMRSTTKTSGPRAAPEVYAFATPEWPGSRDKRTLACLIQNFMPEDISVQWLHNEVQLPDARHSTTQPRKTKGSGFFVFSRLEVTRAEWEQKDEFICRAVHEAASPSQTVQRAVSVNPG
T1 sequence (P01854 other isoform, or with tags, fused parts or gaps limits assumed): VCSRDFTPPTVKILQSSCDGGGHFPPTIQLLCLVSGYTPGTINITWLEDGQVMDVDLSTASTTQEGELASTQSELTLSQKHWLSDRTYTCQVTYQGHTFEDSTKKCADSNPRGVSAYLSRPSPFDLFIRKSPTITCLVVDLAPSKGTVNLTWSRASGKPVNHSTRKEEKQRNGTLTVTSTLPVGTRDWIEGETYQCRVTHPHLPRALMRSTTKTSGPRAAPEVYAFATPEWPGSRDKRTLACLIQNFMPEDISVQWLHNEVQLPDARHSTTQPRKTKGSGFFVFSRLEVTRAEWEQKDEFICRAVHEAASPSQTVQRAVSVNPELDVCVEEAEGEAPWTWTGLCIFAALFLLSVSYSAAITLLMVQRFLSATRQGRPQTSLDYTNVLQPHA
T2 sequence (P01854 104-546 limits assumed, form in doubt): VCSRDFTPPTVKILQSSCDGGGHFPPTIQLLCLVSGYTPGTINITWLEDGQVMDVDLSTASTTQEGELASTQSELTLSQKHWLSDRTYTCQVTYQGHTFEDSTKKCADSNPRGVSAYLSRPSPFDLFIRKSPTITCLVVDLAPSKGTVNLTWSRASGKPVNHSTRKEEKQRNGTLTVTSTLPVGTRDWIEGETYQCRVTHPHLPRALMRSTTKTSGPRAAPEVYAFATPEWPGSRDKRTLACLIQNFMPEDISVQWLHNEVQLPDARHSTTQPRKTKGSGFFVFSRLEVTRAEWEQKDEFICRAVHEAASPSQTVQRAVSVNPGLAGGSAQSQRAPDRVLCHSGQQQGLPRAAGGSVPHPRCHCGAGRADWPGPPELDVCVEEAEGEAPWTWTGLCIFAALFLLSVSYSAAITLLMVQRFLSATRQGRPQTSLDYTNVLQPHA

IC50 (read off the curve) [1]: 0.4 µg/mL
EC50 (read off the curve) [2]: ~0.04 µg/mL
EC50 [3]: 0.116 nM
EC50 (read off the curve) [4]: 0.02 µg/mL
EC50 [5]: 0.3 nM
EC50 (read off the curve) [6]: ~0.03 µg/mL
IC50 [7]: 2.28 nM
B1: chimeric 8D6 antibody (antibody, V domains shown)
VH: QVQLQQSGAELAKPGASVMLSCKASGYTFNGYWMHWVKQRPGQDLEWIGYINPTTGHTEYNQKFKDKATLTADESSNTAYIELSSLTSDDSAVYYCARQEYRHSWFAYWGQGTLVTVSA
VL: DIVLTQSPASLAVSLGQRATISCKASQSVDYDGDTYMNWYHQKPGQPPKLLIYAASNLDSGIPARFSGSGSGTDFTLNIHPVEEEDAATYYCQQTNEDPWTFGGGTKLEIK
notes: c8D6 is the chimeric form of 8D6 with human constant regions (detected with anti-human IgG-Fc); also called parent c8D6 antibody; HRP-conjugated c8D6
